In the RNAGym collection of RNA variant scans (doi:10.1073/pnas.2313332121):
This sample holds only a part of the variants without activity.

B1: TPR 5TU (parent)
chain: GGAUCUUCUCGAUCUAACAAAAAAGACAAAUCUGCCACAAAGCUUGAGAGCAUCUUCGGAUGCAGAGGCGGCAGCCUUCGGUGGCGCGAUAGCGCCAACGUUCUCAACUAUGACACGCAAAACGCGUGCUCCGUUGAAUGGAGUUUAUCAUG

Variants of: B1
Experiment: polymerase ribozyme fitness, log enrichment relative to wild type (log ratio); higher = more active; in vitro selection for triplet polymerase activity
Outline: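 Mutant libraries of both subunits of a heterodimeric triplet polymerase ribozyme were PCR-built, transcribed, and selected once in triplicate, with frozen incubation at −7 °C and capture of gel-excised extended constructs on streptavidin beads before RT-PCR. Illumina sequencing of input and output libraries was filtered to genotypes with ≥10 input reads and ≥1 read per output. Fitness is the logarithm of genotype enrichment over wild-type enrichment, using inverse-variance-weighted replicate averages. The logarithm is base 2.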

Variant	polymerase ribozyme fitness (log ratio)
C10U G143U	-3.61
C10U U13G C14A A28C C54U G92C A113U A122G C129U	≤ -4.2
A12G C36A U55G G71A C96G C116A U134G	≤ -4.2
G11A U44A G48A C57U C96U	≤ -4.2
G11U U31A A60G C93A	-3.94
G11C C38U G65U A122U	≤ -4.2
A12U A21C A52C C85U	-1.19
A12G A28C C116A A147C	≤ -4.2
G11A G50A C63U C93U	-1.77
G11U A60C C76U	-3.53
C10G C18G A19C C87A A98U A115U G117U	≤ -4.2
C10U G48A G86A G88A C95A	≤ -4.2
G11C A21G A28U C38U C87A G133C U144G A150C	≤ -4.2
G11C G92U	-1.84
A12C C93U A120G	-0.829
C10G C63G C79U C85G C99A A107G A121U G143A	≤ -4.2
A12G U55A G84A G117U	-0.697
G11U A26U U82A C93A	≤ -4.2
A12G C85A C118A	-0.759
G11U A12U A30U U55A C85U C95U A142U	≤ -4.2
C10G G86A	-3.52
G11C C93U U101G G128U	-3.85
G11U C57U G58A U104G C105U	-3.72
C10U C18U A39U A49U U61A G68U U82G A110U G133A	≤ -4.2

Variant	polymerase ribozyme fitness (log ratio)
C10G A16G U53A U55A G65A G92A A98U G126A A138U U148G	-4.12
A12G C54A U55G G58C G92A A97U C125G G128U U135C A138G U139A U145G	≤ -4.2
C10U A23G C36A G58U A113U	≤ -4.2
C10A G83C	-3.94
C10G A26U A107U A115U C129A U148G	≤ -4.2
C10G G88U C96U C132G	≤ -4.2
C10A C76U	-3.95
C10G A23U U56A C93U	≤ -4.2
G11A A30G A41C A91U C95G G140C	≤ -4.2
G11C A122G	-2.55
G11A C85A A121U C149U	-2.75
G11U A21U A37G A52C C85U	-4.18
C10U A17C	-2.07
C10U A17U	-3.22
A12C A22C U82A G126A	0.264
G11A A26C U33G C129A	≤ -4.2
G11C A26U C69U	≤ -4.2
A12G A20G A26U A41C C54U U77C U102C U146G	≤ -4.2
G11U	-0.242
G11C	-1.36
G11A	-0.693
A12G A19G A41C C95U G126A	-1.94
G11A A23C A29C A30U C36U U44A A73U G81A C125U G143U	≤ -4.2
A12C A37C G50A C79G A98G	≤ -4.2

Variant	polymerase ribozyme fitness (log ratio)
G11C C38G C87A C95U G100U C105U C118A C129G G133U	≤ -4.2
C10G G11U C79G G92U A110G C123G U130G A138G U146A	≤ -4.2
C10G A12G G84A U109G G141A	≤ -4.2
G11A C123U A142U	-1.6
C10G A37G C51G A107G U145C U148G	≤ -4.2
A12C A40C C87A C93U G94C A110G A142U	≤ -4.2
G11A A29G C38G A147C	≤ -4.2
G11U C32A C54U C57U G92C U148G U151G	≤ -4.2
G11U G70U G83C A122G G143C	≤ -4.2
C10G G11U A28C A37G G46U G88U C96U U102G C105U	≤ -4.2
C10G U53A A150C	≤ -4.2
C10G U53A C54A G80C G84A C96G U104C C108U U145G	≤ -4.2
A12G A17C G50C C63G C96U	-0.474
C10U A19U C35U C95U C99U	≤ -4.2
A12C A21G A122G G140U	-4.13
A12G C95U C105G A106U	-4.1
A12C C43A C57A G84A U139G A147U	≤ -4.2
C10A U15G C57U G83C	≤ -4.2
C10G A98G	-4
A12G A20U C103A C116A A121U C129A	≤ -4.2
C10G C93A A97U C116U	≤ -4.2
G11U G94C A106G	-1.62
G11C A22C G50U U56A C96A G141A	-3.94
A12G U144A	1.44

Variant	polymerase ribozyme fitness (log ratio)
A12G C57A G58A G81A C85U A91G A119G	-3.03
C10U A39C U77A G84A C95U A120U	≤ -4.2
A12G A16U G42C C75U C129U	≤ -4.2
G11A A12U A52G U53C A91U	-4.08
C10U C14G U15G A29C C38U G58A A91G U127G C149U	≤ -4.2
C10U G58A U109G	-3.43
C10U U31A C57A U61A U77C C95A C99U C116U	≤ -4.2
G11C A16U G42U A113C	≤ -4.2
G11A G59C	-0.989
G11C A37C U82G C85G C105U C116G	≤ -4.2
C10A C14G U53A C57A G84A C99U G126A	≤ -4.2
G11U A22G G59U G65C A98U U127C C129G	≤ -4.2
C10U A16U C18U G71C C108G	≤ -4.2
G11C C76A	-1.78
C10G A49G G59A A60U G88U A97U	≤ -4.2
G11U G94A G133C	-2.79
C10U A29U A47U G84U C103A C116G U145G G152U	≤ -4.2
A12C A66C	≤ -4.2
A12G A22C U101G U127C	-1.93
A12C A24G G50C C72U C87G U111C	≤ -4.2
G11U A40U G84A C132A G143C	≤ -4.2
A12C G59A C75U C114U A150C	≤ -4.2
C10U A12U A121C	-4.08
A12C C57A	-0.21

Variant	polymerase ribozyme fitness (log ratio)
C10U C93U G117A A137C	≤ -4.2
G11A U45A G46C G80C C87A	≤ -4.2
C10G A91C C95U C103G C116G	≤ -4.2
G11C A19C	-1.41
C10A C32G U139G	≤ -4.2
G11A U61A G67C C87G G141U	≤ -4.2
A12U A20C C36G A138C	-4.13
A12C C105G	-2.6
G11C C36G U56A C57U G59A C96G	≤ -4.2
A12G C36U A37C G59C U102A C118G A120C U146A	≤ -4.2
A12C C96G C99U	-2.39
A12C C87U	-0.61
C10G A22U	-3.34
C10A A66C C85U A98G A121C	≤ -4.2
G11U A19U G81U C95U	-1.81
A12C U53A C87U	-2
G11C C32G C54U C57U C79G C87G A110G	≤ -4.2
C10G U82C G94U U102C A107C A138U	≤ -4.2
C10G G65U G88C C105U C114A	≤ -4.2
C10U A60G	-2.5
A12G A52C U55A C118G A120U	-1.84
C10A C51G A52C G59A C75G	≤ -4.2
A12C A119G	-0.0231
C10U G67C	≤ -4.2

Variant	polymerase ribozyme fitness (log ratio)
G11C A40G U82A G94C G140U	≤ -4.2
C10U C96G	-3.82
C10U C96U	-2.51
A12G C38U G86A C87U A121C G136A	≤ -4.2
A12G U44A A52G C85A C118U	≤ -4.2
G11A A20C A21U A52G U55C G94C C116U	-4.05
G11C C85U A97U G124C	-3.4
G11U A97G C103A U146A	-4.09
G11C G59A A60C	-3.14
C10G U53A	-3.48
C10G A19G A37G G42C C57U G59A C129A	≤ -4.2
G11A A20U C54A C87G G100C U145A	≤ -4.2
C10G A21U C87G A91U C95A	≤ -4.2
C10A G48C G59A C103G U104A C105U A113C U146A	≤ -4.2
C10U G42A A49U A64G G71A U139C	≤ -4.2
A12G A19C A29U C129G	≤ -4.2
A12C A41G C87A A89C U144A	≤ -4.2
G11U C85A G86U U134G A150G	≤ -4.2
C10G A52C	≤ -4.2
C10G C116A	-2.96
C10U G83A	-3.44
C10U A20U G83U	-3.85
C10G C14G G25C G59U C95U A110G	≤ -4.2
C10U U33A A49G C76U G81A A98G U102C A137C G140U	≤ -4.2

Variant	polymerase ribozyme fitness (log ratio)
C10G A21G G59A	≤ -4.2
A12C G94A G152C	-3.98
A12U A19U A37U U55A	-3.16
G11U C27G C35A C95U C131G G152U	-3.68
A12G G84C	-1.21
C10G U55A U148A A150C	≤ -4.2
G11U A26G C54U A142C	≤ -4.2
C10G A64C G70A A97U U144G A150U	≤ -4.2
A12C C35G U56G G80A G81C G100C C116U U135C	≤ -4.2
A12G C35A G74A U101A A147U	≤ -4.2
G11U C18G A21C U31C C57U A91G A113C G143U	≤ -4.2
C10U A52C U55A A97G A98G C129U	≤ -4.2
G11A G86U C93G	-1.46
A12G C18G A21U G68C G83A A97U C125U G140U G143U	≤ -4.2
G11A U55G U56A U102A	-3.42
A12C A41U C75U A122C C125U	-3.38
C10A C32G C38U C54U A142U	-4.12
A12C U53A U56A	-2.64
C10U A47C	-3.19
C10U A20U U44A C79U C87A	≤ -4.2
C10U U90G C116G	-3.83
A12G U56A	-0.197
C10U A37U G50A A73U A122G	≤ -4.2
